# Test results as given in IntAct's records for PubMed 20551905.
# B1: SUN domain-containing protein 2 (Homo sapiens), Q9UH99 (parent)
# chain: MSRRSQRLTRYSQGDDDGSSSSGGSSVAGSQSTLFKDSPLRTLKRKSSNMKRLSPAPQLGPSSDAHTSYYSESLVHESWFPPRSSLEELHGDANWGEDLRVRRRRGTGGSESSRASGLVGRKATEDFLGSSSGYSSEDDYVGYSDVDQQSSSSRLRSAVSRAGSLLWMVATSPGRLFRLLYWWAGTTWYRLTTAASLLDVFVLTRRFSSLKTFLWFLLPLLLLTCLTYGAWYFYPYGLQTFHPALVSWWAAKDSRRPDEGWEARDSSPHFQAEQRVMSRVHSLERRLEALAAEFSSNWQKEAMRLERLELRQGAPGQGGGGGLSHEDTLALLEGLVSRREAALKEDFRRETAARIQEELSALRAEHQQDSEDLFKKIVRASQESEARIQQLKSEWQSMTQESFQESSVKELRRLEDQLAGLQQELAALALKQSSVAEEVGLLPQQIQAVRDDVESQFPAWISQFLARGGGGRVGLLQREEMQAQLRELESKILTHVAEMQGKSAREAAASLSLTLQKEGVIGVTEEQVHHIVKQALQRYSEDRIGLADYALESGGASVISTRCSETYETKTALLSLFGIPLWYHSQSPRVILQPDVHPGNCWAFQGPQGFAVVRLSARIRPTAVTLEHVPKALSPNSTISSAPKDFAIFGFDEDLQQEGTLLGKFTYDQDGEPIQTFHFQAPTMATYQVVELRILTNWGHPEYTCIYRFRVHGEPAH
# Variants of: B1
# Conditions: with copb_human COPB1, P53618
# Sequence of copb_human COPB1, P53618 (P53618 whole entry): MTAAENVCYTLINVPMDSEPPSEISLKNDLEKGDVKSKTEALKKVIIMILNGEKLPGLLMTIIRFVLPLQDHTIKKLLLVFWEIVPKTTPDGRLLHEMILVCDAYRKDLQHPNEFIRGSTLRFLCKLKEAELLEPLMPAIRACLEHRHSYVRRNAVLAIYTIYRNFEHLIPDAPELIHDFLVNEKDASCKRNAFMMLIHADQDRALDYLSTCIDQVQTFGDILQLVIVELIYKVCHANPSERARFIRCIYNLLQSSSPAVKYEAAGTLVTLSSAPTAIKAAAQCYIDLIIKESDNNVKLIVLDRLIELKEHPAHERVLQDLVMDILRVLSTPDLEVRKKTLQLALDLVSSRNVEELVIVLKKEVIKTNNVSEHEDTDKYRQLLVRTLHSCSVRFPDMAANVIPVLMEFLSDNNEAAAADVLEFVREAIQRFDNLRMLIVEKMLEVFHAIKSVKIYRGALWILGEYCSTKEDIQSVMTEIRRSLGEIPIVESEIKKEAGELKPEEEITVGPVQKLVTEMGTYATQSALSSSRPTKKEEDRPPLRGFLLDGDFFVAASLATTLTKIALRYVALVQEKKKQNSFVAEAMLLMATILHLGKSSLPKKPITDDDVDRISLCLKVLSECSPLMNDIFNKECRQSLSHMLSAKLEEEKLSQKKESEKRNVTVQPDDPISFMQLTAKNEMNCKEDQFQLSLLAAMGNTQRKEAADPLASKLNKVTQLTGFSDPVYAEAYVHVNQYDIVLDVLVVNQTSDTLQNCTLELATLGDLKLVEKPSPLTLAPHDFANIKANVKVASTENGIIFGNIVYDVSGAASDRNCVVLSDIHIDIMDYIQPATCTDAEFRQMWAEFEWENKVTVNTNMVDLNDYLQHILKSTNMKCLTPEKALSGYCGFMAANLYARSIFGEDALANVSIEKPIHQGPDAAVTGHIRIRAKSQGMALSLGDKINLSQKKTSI
row,effect of a mutation on the interaction,Variant
1,disrupting interaction,K51A
2,disrupting interaction,K44A
3,disrupting interaction,R102A;R103A;R104A;R105A
4,disrupting interaction,R45A
5,disrupting interaction,K46A
6,disrupting interaction,R52A
7,disrupting interaction,R41A
